# Test results: the Immune Epitope Database (IEDB)
# Key:
# HLA-A*26:01 [1] = experiment: IEDB peptide-MHC binding, purified MHC/direct/fluorescence; filed as Kd, often an IC50 or EC50 that approximates it; ≥ and ≤ were set here for values at or beyond the usual limits of such assays
# HLA-A*23:01 = experiment: IEDB peptide-MHC binding, purified MHC/competitive/radioactivity; filed as Kd, often an IC50 or EC50 that approximates it; ≥ and ≤ were set here for values at or beyond the usual limits of such assays; conditions: source organism: Dengue virus 4 Philippines/H241/1956
# HLA-B*35:01 = experiment: as above
# HLA-B*53:01 = experiment: as above
# HLA-B*51:01 = experiment: as above
# HLA-A*32:01 = experiment: as above; conditions: source organism: Dengue virus 4 Philippines/H241/1956
# HLA-A*26:01 [2] = experiment: as above
# HLA-B*44:03 = experiment: as above
# HLA-B*18:01 = experiment: as above
# HLA-B*40:02 = experiment: as above
# HLA-B*40:01 = experiment: as above
# HLA-B*44:02 = experiment: as above
# HLA-B*45:01 = experiment: as above
# HLA-B*15:01 [3] = experiment: IEDB peptide-MHC binding, purified MHC/competitive/fluorescence; filed as Kd, often an IC50 or EC50 that approximates it; ≥ and ≤ were set here for values at or beyond the usual limits of such assays; conditions: source organism: Bacillus anthracis str. A0488
# HLA-A*03:01 = experiment: as above
# HLA-A*01:01 = experiment: IEDB peptide-MHC binding, purified MHC/competitive/radioactivity; filed as Kd, often an IC50 or EC50 that approximates it; ≥ and ≤ were set here for values at or beyond the usual limits of such assays
# HLA-B*15:01 [4] = experiment: as above
# HLA-A*30:02 = experiment: as above
# [5] = source organism: Dengue virus 4 Philippines/H241/1956
# [6] = source organism: Dengue virus 2 Jamaica/1409/1983
# [7] = source organism: Dengue virus 1 Brazil/97-11/1997
# [8] = source organism: Mammarenavirus brazilense
# [9] = source organism: SARS coronavirus Tor2
# [10] = source organism: Lymphocytic choriomeningitis virus (strain WE)
# [11] = source organism: Mammarenavirus guanaritoense
# [12] = source organism: Lymphocytic choriomeningitis virus (strain Armstrong)
# [13] = source organism: Mammarenavirus lassaense
# [14] = source organism: Dengue virus 3 Martinique/1243/1999
sequence,measurement,setting,value
LVIDNLYGF,Kd,HLA-A*26:01 [1]; source organism: Mycobacterium tuberculosis,12.2 nM
MALKDFKEF,Kd,HLA-A*23:01,154 nM
same,Kd,HLA-B*35:01; [5],77 nM
same,Kd,HLA-B*53:01; [5],139 nM
MPLVMAWRTI,Kd,HLA-B*51:01; [5],61.9 nM
same,Kd,HLA-B*35:01; [5],705 nM
same,Kd,HLA-A*32:01,136 nM
same,Kd,HLA-B*53:01; [5],10.8 nM
MPSMKRFRRE,Kd,HLA-B*51:01; [6],≥ 69600 nM
same,Kd,HLA-B*35:01; [6],≥ 30900 nM
same,Kd,HLA-B*53:01; [6],≥ 20600 nM
MSIPATLFVW,Kd,HLA-A*26:01 [2]; [7],15600 nM
same,Kd,HLA-B*53:01; [7],414 nM
MVSIQWHAM,Kd,HLA-A*26:01 [1]; source organism: Giardia lamblia ATCC 50803,3760 nM
PELKKPITW,Kd,HLA-B*44:03; [8],14100 nM
same,Kd,HLA-B*18:01; [8],≥ 77500 nM
same,Kd,HLA-B*40:02; [8],≥ 37100 nM
same,Kd,HLA-B*40:01; [8],≥ 76100 nM
same,Kd,HLA-B*44:02; [8],≥ 42800 nM
same,Kd,HLA-B*45:01; [8],≥ 77700 nM
QELYSPLFL,Kd,HLA-B*44:03; [9],222 nM
same,Kd,HLA-B*18:01; [9],5570 nM
same,Kd,HLA-B*40:02; [9],155 nM
same,Kd,HLA-B*40:01; [9],102 nM
same,Kd,HLA-B*44:02; [9],205 nM
same,Kd,HLA-B*45:01; [9],2210 nM
QSRKEFMSM,Kd,HLA-B*15:01 [3],66.6 nM
REPTDQKQF,Kd,HLA-B*44:03; [10],8940 nM
same,Kd,HLA-B*18:01; [10],≥ 77500 nM
same,Kd,HLA-B*40:02; [10],6290 nM
same,Kd,HLA-B*40:01; [10],≥ 20400 nM
same,Kd,HLA-B*44:02; [10],1340 nM
same,Kd,HLA-B*45:01; [10],≥ 77700 nM
REVLSDREL,Kd,HLA-B*44:03; [9],1120 nM
same,Kd,HLA-B*18:01; [9],7330 nM
same,Kd,HLA-B*40:02; [9],102 nM
same,Kd,HLA-B*40:01; [9],15.6 nM
same,Kd,HLA-B*44:02; [9],1220 nM
same,Kd,HLA-B*45:01; [9],1390 nM
REVSTAAVT,Kd,HLA-B*44:03; [9],6860 nM
same,Kd,HLA-B*18:01; [9],16900 nM
same,Kd,HLA-B*40:02; [9],≥ 21100 nM
same,Kd,HLA-B*40:01; [9],112 nM
same,Kd,HLA-B*44:02; [9],16000 nM
same,Kd,HLA-B*45:01; [9],30.3 nM
RLLHRTTRK,Kd,HLA-A*03:01; source organism: Yersinia pestis Nepal516,13.3 nM
RLMATKNIY,Kd,HLA-B*15:01 [3],136 nM
RVYAHDAQH,Kd,HLA-A*03:01; source organism: Pixuna virus,30.5 nM
SEDGLDGFDW,Kd,HLA-B*44:03; [11],21.2 nM
same,Kd,HLA-B*18:01; [11],≥ 35300 nM
same,Kd,HLA-B*40:02; [11],14400 nM
same,Kd,HLA-B*40:01; [11],14600 nM
same,Kd,HLA-B*44:02; [11],21.3 nM
same,Kd,HLA-B*45:01; [11],≥ 56700 nM
SEIQLQRLC,Kd,HLA-B*44:03; [8],327 nM
same,Kd,HLA-B*18:01; [8],10500 nM
same,Kd,HLA-B*40:02; [8],68.5 nM
same,Kd,HLA-B*40:01; [8],1770 nM
same,Kd,HLA-B*44:02; [8],285 nM
same,Kd,HLA-B*45:01; [8],990 nM
SEISVILQEL,Kd,HLA-B*44:03; [12],240 nM
same,Kd,HLA-B*18:01; [12],10300 nM
same,Kd,HLA-B*40:02; [12],544 nM
same,Kd,HLA-B*40:01; [12],868 nM
same,Kd,HLA-B*44:02; [12],106 nM
same,Kd,HLA-B*45:01; [12],4170 nM
SELAKGVAL,Kd,HLA-B*44:03; [9],175 nM
same,Kd,HLA-B*18:01; [9],1110 nM
same,Kd,HLA-B*40:02; [9],14.1 nM
same,Kd,HLA-B*40:01; [9],3.35 nM
same,Kd,HLA-B*44:02; [9],132 nM
same,Kd,HLA-B*45:01; [9],401 nM
SESDLEFSW,Kd,HLA-B*44:03; [13],7.4 nM
same,Kd,HLA-B*18:01; [13],277 nM
same,Kd,HLA-B*40:02; [13],414 nM
same,Kd,HLA-B*40:01; [13],14900 nM
same,Kd,HLA-B*44:02; [13],9.02 nM
same,Kd,HLA-B*45:01; [13],1650 nM
SMANIFRGSY,Kd,HLA-A*01:01; [6],3250 nM
same,Kd,HLA-B*15:01 [4]; [6],0.27 nM
same,Kd,HLA-A*30:02; [6],8.95 nM
SQHNYRPGYF,Kd,HLA-B*15:01 [4]; [7],9.37 nM
SQKTTWLPVL,Kd,HLA-B*15:01 [4]; [7],91.5 nM
TENLVIEGPT,Kd,HLA-B*44:03; [9],≥ 29100 nM
same,Kd,HLA-B*18:01; [9],≥ 56400 nM
same,Kd,HLA-B*40:02; [9],721 nM
same,Kd,HLA-B*40:01; [9],≥ 42900 nM
same,Kd,HLA-B*44:02; [9],14000 nM
same,Kd,HLA-B*45:01; [9],1830 nM
TPQPMELKY,Kd,HLA-B*35:01; [14],10.6 nM
same,Kd,HLA-B*53:01; [14],18.4 nM
VEAVMYMGTL,Kd,HLA-B*44:03; [9],516 nM
same,Kd,HLA-B*18:01; [9],7240 nM
same,Kd,HLA-B*40:02; [9],33.8 nM
same,Kd,HLA-B*40:01; [9],22.2 nM
same,Kd,HLA-B*44:02; [9],1540 nM
same,Kd,HLA-B*45:01; [9],508 nM
VLMMLVAPSY,Kd,HLA-A*01:01; [5],1000 nM
same,Kd,HLA-B*15:01 [4]; [5],10.1 nM
same,Kd,HLA-A*30:02; [5],26.6 nM
VNIKYNPHI,Kd,HLA-B*15:01 [4]; source organism: Vaccinia virus WR,141 nM
YTALFSGVSW,Kd,HLA-A*26:01 [2]; [14],916 nM
same,Kd,HLA-B*44:02; [14],2070 nM
same,Kd,HLA-B*53:01; [14],18.2 nM
